From patent publication US20130330346A1 (Novartis, published 2013)

T1: Human CXCR2 (human, UniProt P25025 1-360)
T1 construct: Some cell lines carry an N-terminal 3xHA tag; also called hCXCR2; huCXCR2
T1 sequence: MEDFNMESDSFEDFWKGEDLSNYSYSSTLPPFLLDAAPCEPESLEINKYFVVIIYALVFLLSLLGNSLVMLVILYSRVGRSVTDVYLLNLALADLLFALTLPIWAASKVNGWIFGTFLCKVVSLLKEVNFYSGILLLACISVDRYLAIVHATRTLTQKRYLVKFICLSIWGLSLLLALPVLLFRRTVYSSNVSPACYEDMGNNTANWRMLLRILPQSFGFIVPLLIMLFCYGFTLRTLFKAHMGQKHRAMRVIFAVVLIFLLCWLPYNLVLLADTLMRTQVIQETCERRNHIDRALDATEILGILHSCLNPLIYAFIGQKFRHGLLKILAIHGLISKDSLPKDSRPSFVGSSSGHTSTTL

T2: Cynomolgus CXCR2 (cynomolgus, UniProt Q28519 3-353 (rhesus entry))
T2 chain: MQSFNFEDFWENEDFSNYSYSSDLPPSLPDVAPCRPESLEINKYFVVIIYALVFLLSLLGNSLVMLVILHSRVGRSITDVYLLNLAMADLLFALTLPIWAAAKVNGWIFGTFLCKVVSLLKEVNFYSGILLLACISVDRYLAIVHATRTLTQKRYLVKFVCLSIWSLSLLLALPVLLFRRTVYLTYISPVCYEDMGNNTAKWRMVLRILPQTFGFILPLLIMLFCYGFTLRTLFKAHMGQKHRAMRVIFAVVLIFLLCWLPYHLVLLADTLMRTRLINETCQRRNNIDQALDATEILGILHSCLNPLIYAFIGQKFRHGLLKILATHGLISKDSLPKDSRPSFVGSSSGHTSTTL


Experiments:
Human CXCR2 [1] = biological target: T1, Human CXCR2; test: FACS, periplasmic extract vs FMAT Blue Gro-α
Method: Periplasmic extracts (as described above) were analyzed on FACS for competition with Gro-α in binding to human CXCR2. 2×10⁵ cells were incubated with a ½ dilution of periplasmic extracts in FACS buffer (PBS+10% fetal bovine serum (Sigma, F7524)) for 30 minutes at 4° C. Then, an equal volume of 6 nM of FMAT Blue-labeled human Gro-α in FACS buffer was added and incubation was continued for another 30 minutes at 4° C. in the dark. Cells were then washed three times in FACS buffer and finally resuspended in FACS buffer. Dead cells were stained with propidium iodide (Sigma, P4170). Samples were then analyzed on a FACSarray (BD Biosciences).

Human CXCR2 [2] = biological target: T1, Human CXCR2; test: cell-based or functional assay
Cynomolgus CXCR2 [3] = biological target: T2, Cynomolgus CXCR2; test: cell-based or functional assay
Human CXCR2 [4] = biological target: T1, Human CXCR2; test: cell-based or functional assay; remark: listed apart in the source
Human CXCR2 [5] = biological target: T1, Human CXCR2; test: FACS competition vs 3 nM FMAT-Blue Gro-α
Method: (§1) Multivalent anti-CXCR2Nanobodies were titrated against 3 nM FMAT-Blue-labeled Gro-α in the FACS ligand competition assay on human and cynomolgus CXCR2 (Table 14). On human CXCR2, blocking potencies range between double digit nM and sub-nM whereas on cynomolgus CXCR2, they range between single and double digit nM.

Cynomolgus CXCR2 [6] = biological target: T2, Cynomolgus CXCR2; test: FACS competition vs 3 nM FMAT-Blue Gro-α
Method: as §1

Row | FACS Gro-α competition (% inhibition) (Human CXCR2 [1]) [%] | FLIPR % inhibition of max (Human CXCR2 [2]) [%] | FLIPR IC50 (GRO-α induced calcium release) (Human CXCR2 [2]) [nM] | FLIPR % inhibition of max (Cynomolgus CXCR2 [3]) [%] | FLIPR IC50 (GRO-α induced calcium release) (Cynomolgus CXCR2 [3]) [nM] | [35S]GTPγS % inhibition of max (ENA-78) (Human CXCR2 [4]) [%] | [35S]GTPγS % inhibition of max (IL-8) (Human CXCR2 [4]) [%] | [35S]GTPγS IC50 (ENA-78) (Human CXCR2 [4]) [nM] | [35S]GTPγS IC50 (IL-8) (Human CXCR2 [4]) [nM] | % inhibition of max (Human CXCR2 [5]) [%] | IC50 (Human CXCR2 [5]) [nM] | % inhibition of max (Cynomolgus CXCR2 [6]) [%] | IC50 (Cynomolgus CXCR2 [6]) [nM] | [35S]GTPγS % inhibition of max (GRO-α) (Human CXCR2 [4]) [%] | [35S]GTPγS IC50 (GRO-α) (Human CXCR2 [4]) [nM] | Binder
1 | 77.9 |  |  |  |  |  |  |  |  |  |  |  |  |  |  | 145D3 (VHH, Tested as periplasmic extract only; also called 145D03; not shown: C-terminal c-myc tag and His6 tag coded by the vector) VHH: EVQLVESGGGLVQAGGSLSLSCAASGLIFRLSGMAWYRQAPGRQREWVAVLTKDGTLHYADPVKGRFTISRNNAENTWYLQMNSLKPEDTAIYYCNTGRYWGQGTQVTVSS
2 |  | 100 | 14.7 | 100 | 3.65 | 100 | 100 | 0.116 | 0.997 | 100 | 0.5 | 99 | 1.91 |  |  | CXCR20032 (bispecific antibody, Biparatopic: two VHH joined by a GlySer linker; also called 2B2-35GS-163D2; not shown: C-terminal c-myc tag and His6 tag coded by pAX100) EVQLVESGGELVQPGGSLRLSCAASGSILTINAMGWYRQAPGKQRELVVRRTRGGSTTYQDSVKGRFTISADIAKKTMYLQMNSLKPEDTAVYYCMLDDRGGVYWGQGTQVTVSSGGGGSGGGGSGGGGSGGGGSGGGGSGGGGSGGGGSEVQLVESGGGLVQAGGSLRLSCAASGRTFSDYAMGWFRQAPGKEREFVAAITWNGGRVFYTASVKGRFTISRDNAKNTMYLQMNSLKPEDTAVYYCAADKDRRTDYLGHPVAYWGQGTQVTVSS
3 |  | 100 | 14.8 | 100 | 12 |  |  |  |  | 99 | 4.28 | 96 | 6.61 | 100 | 26.6 | CXCR20023 (bispecific antibody, Two different VHH joined by a GlySer linker; also called 163D2-35GS-163E3; not shown: C-terminal c-myc tag and His6 tag coded by pAX100) EVQLVESGGGLVQAGGSLRLSCAASGRTFSDYAMGWFRQAPGKEREFVAAITWNGGRVFYTASVKGRFTISRDNAKNTMYLQMNSLKPEDTAVYYCAADKDRRTDYLGHPVAYWGQGTQVTVSSGGGGSGGGGSGGGGSGGGGSGGGGSGGGGSGGGGSEVQLVESGGGLVQPGGSLRLSCVASGRIFSSNAMGWFRQAPGKEREFVAAITWRSGGSAYYADSAKGRFTISRDNAKNTVYLQMNSLKPEDTAVYYCAAGGSSWLSFPPDYWGQGTQVTVSS
4 |  | 100 | 7.32 | 100 | 2.31 | 100 | 100 | 0.787 | 0.827 | 99.5 | 1.09 | 98.5 | 1.85 | 100 | 0.551 | CXCR20021 (bispecific antibody, Biparatopic: two VHH joined by a GlySer linker; also called 127D1-35GS-163E3; 127D1-163E3; not shown: C-terminal c-myc tag and His6 tag coded by pAX100) EVQLVESGGGLVQAGESLRLSCAASGSTFDFKVMGWYRQPPGKQREGVAAIRLSGNMHYAESVKGRFTISKANAKNTVYLQMNSLRPEDTAVYYCKVNIRGQDYWGQGTQVTVSSGGGGSGGGGSGGGGSGGGGSGGGGSGGGGSGGGGSEVQLVESGGGLVQPGGSLRLSCVASGRIFSSNAMGWFRQAPGKEREFVAAITWRSGGSAYYADSAKGRFTISRDNAKNTVYLQMNSLKPEDTAVYYCAAGGSSWLSFPPDYWGQGTQVTVSS
5 |  | 100 | 22.9 | 100 | 1080 |  |  |  |  | 99 | 3.4 | 73 | 29.5 |  |  | CXCR20017 (other, Two different VHH joined by a GlySer linker; also called 97A9-35GS-137B7; not shown: C-terminal c-myc tag and His6 tag coded by pAX100) EVQLVESGGGLVQPGGSLRLSCVASGSIVRINTMGWYRQTPGKQRELVADITSGGNINYIDAVKGRFTISRDNTKNTVYLQMNSLKPEDTAVYYCNAEIVVLVGVWTQRARTGNYWGQGTQVTVSSGGGGSGGGGSGGGGSGGGGSGGGGSGGGGSGGGGSEVQLVESGGGLVQPGGSVRLSCVASGIIFRLSALGWTRQGPGKAREWVAGINSDGTTNYADPVKGRFTISRDNAKNTIYLHMDMLKPEDTAVYYCASGKYRGQGTQVTVSS
6 | 72.6 |  |  |  |  |  |  |  |  |  |  |  |  |  |  | 143A5 (VHH, Tested as periplasmic extract only; also called 143A05; not shown: C-terminal c-myc tag and His6 tag coded by the vector) VHH: KVQLVESGGGLVQAGGSLRLSCAASGRAFNYYVMAWFRQAQGKEREFVAAISTRGSMTKYSDSVQGRFTISRDNAKNTVYLHMNSLKPEDTAVYYCAADPRGSSWSFSSGGYDYWGQGTQVTVSS
7 |  | 100 | 26.4 | 100 | 11.8 |  |  |  |  | 99 | 5.27 | 95 | 5.32 | 100 | 30.3 | CXCR20024 (VHH, Bivalent: two VHH joined by a GlySer linker; also called 163E3-35GS-163E3; not shown: C-terminal c-myc tag and His6 tag coded by pAX100) EVQLVESGGGLVQPGGSLRLSCVASGRIFSSNAMGWFRQAPGKEREFVAAITWRSGGSAYYADSAKGRFTISRDNAKNTVYLQMNSLKPEDTAVYYCAAGGSSWLSFPPDYWGQGTQVTVSSGGGGSGGGGSGGGGSGGGGSGGGGSGGGGSGGGGSEVQLVESGGGLVQPGGSLRLSCVASGRIFSSNAMGWFRQAPGKEREFVAAITWRSGGSAYYADSAKGRFTISRDNAKNTVYLQMNSLKPEDTAVYYCAAGGSSWLSFPPDYWGQGTQVTVSS
8 |  | 100 | 12.2 | 100 | 7.88 |  |  |  |  | 99 | 0.9 | 98.5 | 2.08 | 100 | 0.891 | CXCR20025 (bispecific antibody, Biparatopic: two VHH joined by a GlySer linker; also called 163D2-35GS-127D1; not shown: C-terminal c-myc tag and His6 tag coded by pAX100) EVQLVESGGGLVQAGGSLRLSCAASGRTFSDYAMGWFRQAPGKEREFVAAITWNGGRVFYTASVKGRFTISRDNAKNTMYLQMNSLKPEDTAVYYCAADKDRRTDYLGHPVAYWGQGTQVTVSSGGGGSGGGGSGGGGSGGGGSGGGGSGGGGSGGGGSEVQLVESGGGLVQAGESLRLSCAASGSTFDFKVMGWYRQPPGKQREGVAAIRLSGNMHYAESVKGRFTISKANAKNTVYLQMNSLRPEDTAVYYCKVNIRGQDYWGQGTQVTVSS
9 |  | 100 | 15.2 | 100 | 4.26 | 100 | 100 | 1.38 | 0.84 | 100 | 0.49 | 99 | 1.98 |  |  | CXCR20031 (bispecific antibody, Biparatopic: two VHH joined by a GlySer linker; also called 2B2-35GS-163E3; not shown: C-terminal c-myc tag and His6 tag coded by pAX100) EVQLVESGGELVQPGGSLRLSCAASGSILTINAMGWYRQAPGKQRELVVRRTRGGSTTYQDSVKGRFTISADIAKKTMYLQMNSLKPEDTAVYYCMLDDRGGVYWGQGTQVTVSSGGGGSGGGGSGGGGSGGGGSGGGGSGGGGSGGGGSEVQLVESGGGLVQPGGSLRLSCVASGRIFSSNAMGWFRQAPGKEREFVAAITWRSGGSAYYADSAKGRFTISRDNAKNTVYLQMNSLKPEDTAVYYCAAGGSSWLSFPPDYWGQGTQVTVSS
10 | 70.8 |  |  |  |  |  |  |  |  |  |  |  |  |  |  | 143B3 (VHH, Tested as periplasmic extract only; also called 143B03; not shown: C-terminal c-myc tag and His6 tag coded by the vector) VHH: EVQLVESGGGLVQPGGSLRLSCAASGFTFSTYWMYWVRQAPGKGLDWVSAINAGGDSTYYADPVKGRFTISRDNNKNTLYLQMNSLKPEDTALYYCATVRGTARDLDYWGQGTQVTVSS
11 |  | 100 | 9.34 | 100 | 8.64 |  |  |  |  | 100 | 4.14 | 98 | 8.01 | 100 | 28.5 | CXCR20022 (VHH, Bivalent: two VHH joined by a GlySer linker; also called 163D2-35GS-163D2; not shown: C-terminal c-myc tag and His6 tag coded by pAX100) EVQLVESGGGLVQAGGSLRLSCAASGRTFSDYAMGWFRQAPGKEREFVAAITWNGGRVFYTASVKGRFTISRDNAKNTMYLQMNSLKPEDTAVYYCAADKDRRTDYLGHPVAYWGQGTQVTVSSGGGGSGGGGSGGGGSGGGGSGGGGSGGGGSGGGGSEVQLVESGGGLVQAGGSLRLSCAASGRTFSDYAMGWFRQAPGKEREFVAAITWNGGRVFYTASVKGRFTISRDNAKNTMYLQMNSLKPEDTAVYYCAADKDRRTDYLGHPVAYWGQGTQVTVSS
